The values that follow come from article doi:10.1101/2021.12.21.473719.

The target of this test is POPDC1 tagged with Venus (YFP acceptor for FLIM-FRET with TREK-1) (mouse) (UniProt Q9ES83). As to the kind of experiment: FRET or BRET. (In BRET a luciferase serves as donor, and the signal depends on an acceptor being close.)
POPDC1 tagged with Venus (YFP acceptor for FLIM-FRET with TREK-1) (mouse), sequence (Q9ES83 whole entry): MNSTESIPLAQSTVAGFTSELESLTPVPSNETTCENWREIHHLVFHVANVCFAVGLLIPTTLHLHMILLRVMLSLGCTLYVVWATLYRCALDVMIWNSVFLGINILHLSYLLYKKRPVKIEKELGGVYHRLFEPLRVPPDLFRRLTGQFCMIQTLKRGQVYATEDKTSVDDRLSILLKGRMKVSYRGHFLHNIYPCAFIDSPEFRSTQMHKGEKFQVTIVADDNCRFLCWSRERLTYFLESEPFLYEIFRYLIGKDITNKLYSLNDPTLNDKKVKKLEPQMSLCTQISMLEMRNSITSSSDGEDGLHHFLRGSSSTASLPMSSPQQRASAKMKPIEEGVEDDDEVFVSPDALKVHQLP

Cerulean-TREK-1 (natural protein), sequence (O95069 whole entry): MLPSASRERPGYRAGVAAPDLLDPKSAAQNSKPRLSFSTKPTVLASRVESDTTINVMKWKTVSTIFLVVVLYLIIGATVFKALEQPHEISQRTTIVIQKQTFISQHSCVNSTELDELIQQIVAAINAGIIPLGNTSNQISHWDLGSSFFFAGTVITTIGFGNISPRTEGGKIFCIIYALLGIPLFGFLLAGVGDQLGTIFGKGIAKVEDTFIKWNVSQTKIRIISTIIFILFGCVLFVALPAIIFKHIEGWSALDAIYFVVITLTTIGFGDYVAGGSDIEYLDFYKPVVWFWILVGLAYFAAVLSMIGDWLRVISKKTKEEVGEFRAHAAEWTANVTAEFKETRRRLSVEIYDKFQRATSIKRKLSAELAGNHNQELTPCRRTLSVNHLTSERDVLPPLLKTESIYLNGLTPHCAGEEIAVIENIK

For the substance Cerulean-TREK-1 (natural protein), the FRET efficiency was found to be 18%.
